T1: FZD5 CRD (Homo sapiens, UniProt Q13467)
T1 construct: K29-T156; GPI anchor signal (C); expressed in transfected cells; host or cells: CHO cells, lentiviral pLenti-puro
T1 sequence (Q13467 29-156): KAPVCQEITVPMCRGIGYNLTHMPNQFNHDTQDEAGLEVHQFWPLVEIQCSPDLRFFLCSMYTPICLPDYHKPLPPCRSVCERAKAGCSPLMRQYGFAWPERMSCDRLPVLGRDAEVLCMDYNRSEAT

T2: FZD8 CRD (Homo sapiens, UniProt Q9H461)
T2 construct: K31-D155; GPI anchor signal (C); expressed in transfected cells; host or cells: CHO cells, lentiviral pLenti-puro
T2 sequence (Q9H461 31-155): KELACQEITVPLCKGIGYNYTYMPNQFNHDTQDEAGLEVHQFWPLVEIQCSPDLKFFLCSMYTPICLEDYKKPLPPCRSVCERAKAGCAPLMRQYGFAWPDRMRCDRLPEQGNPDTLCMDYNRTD

T3: FZD9 CRD (Homo sapiens, UniProt O00144)
T3 construct: G35-A161; GPI anchor signal (C); expressed in transfected cells; host or cells: CHO cells, lentiviral pLenti-puro
T3 sequence (O00144 35-161): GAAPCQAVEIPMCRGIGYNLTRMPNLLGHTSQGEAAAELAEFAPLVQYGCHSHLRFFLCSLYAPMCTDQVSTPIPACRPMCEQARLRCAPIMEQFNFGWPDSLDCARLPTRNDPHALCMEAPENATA

T4: FZD3 CRD (Homo sapiens, UniProt Q9NPG1)
T4 construct: CRD of FZD1, FZD2, FZD3, FZD4, FZD5, FZD6, FZD7, FZD8, FZD9 or FZD10; GPI anchor signal (C); expressed in transfected cells; host or cells: CHO cells, lentiviral pLenti-puro
T4 sequence (Q9NPG1 23-136 limits assumed): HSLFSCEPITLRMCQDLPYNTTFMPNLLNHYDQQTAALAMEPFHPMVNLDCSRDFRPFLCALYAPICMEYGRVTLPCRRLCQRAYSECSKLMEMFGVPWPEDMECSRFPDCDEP

T5: FZD6 CRD (Homo sapiens, UniProt O60353)
T5 construct: S20-P146; GPI anchor signal (C); expressed in transfected cells; host or cells: CHO cells, lentiviral pLenti-puro
T5 sequence (O60353 20-146): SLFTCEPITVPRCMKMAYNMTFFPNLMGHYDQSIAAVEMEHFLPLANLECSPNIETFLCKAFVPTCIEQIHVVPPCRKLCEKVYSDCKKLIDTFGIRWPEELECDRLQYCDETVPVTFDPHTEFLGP


Experiments:
Experiment in all cases: Immunofluorescence of anti-FZD5 Fab binding to CHO cells overexpressing Frizzled CRD
Design in all cases: key: −: no binding; +: very weak binder; ++: weak binder; +++: good binder; ++++: very good binder
FZD1 CRD = target: T6, FZD1 CRD (Homo sapiens, UniProt Q9UP38)
T6 construct: D112-P238; GPI anchor signal (C); expressed in transfected cells; host or cells: CHO cells, lentiviral pLenti-puro
Description: (§1) Plasmids: pLCKO lentiviral vector used for knockout (TKO) library construction and expression of individual gRNAs was constructed as described previously (Hart et al., 2015). Briefly, single guide RNA (sgRNA) scaffold was amplified from px330 (Addgene 42230) and cloned into pLKO.TRC005 lentiviral vector (Broad Institute, Cambridge, Mass.) using AgeI/EcoRI restriction sites. BfuAI sites were added at the 5′ end of the sgRNA scaffold for cloning the TKO library or individual gRNA target sequences. Lenti Cas9-2A-BsdR vector used to generate Cas9 stable expression cell lines was constructed as described previously (Hart et al., 2015). Briefly, lentiCRISPR pXPR_001 (Addgene 49535) was modified through removal of the sgRNA scaffold region through NdeI/EcoRI digest and blunt ends generation using Large Klenow Fragment (NEB). 2A-puro was replaced with 2A-BsdR by PCR using the NheI/MluI sites. Each of the 10 human Frizzled cysteine rich domains (CRDs) were cloned into the lentiviral expression plasmid pLenti-puro in the following cassette: FZD_CRD-MYC-GPI.
(§2) To confirm that the FZD5-WNT7B circuit is not driven simply by expression and rule out the possibility of a disconnect between RNA and protein levels for the Wnt receptors in HPAF-II cells, a panel of recombinant Fabs were generated, alternatively referred to herein as ‘Frizzled profiler’, that can detect and discriminate all but one of the ten Frizzled receptors. […] To characterize the binding specificity of these Fabs on cells, a panel of 10 CHO cell lines was generated, each expressing the CRD domain of a different myc-tagged Frizzled family member anchored at the plasma membrane through a GPI anchor (CHO-myc-FZDGPI). Despite the high sequence identity between Frizzled family members (FIG. 7A, FIG. 7B), selective Fabs were identified for FZD4, FZD5, FZD6 and FZD10 as assessed by immunofluorescence and flow cytometry (FIG. 7D and FIG. 8). […] The FZD8 CRD is most homologous to that of FZD5 (FIG. 7B). These Fabs can be used to discriminate expression of FZD1, FZD2, FZD4, FZD5, FZD6, FZD7, FZD8, FZD9 and FZD10 (FIG. 7D and FIG. 8). The ‘Frizzled profiler’ therefore consists of 10 different Fabs that can be used to discriminate expression of 9 different Frizzled family members. The Frizzled profiler was then used to confirm that HPAF-II cells express FZD1, FZD5, FZD6 and possibly FZD8 (FIG. 7E).
(§3) The binding of anti-FZD5 Fabs to cell surface-expressed Frizzled protein was further determined for each member of the Frizzled family via flow cytometry and immunofluorescence analysis of a panel of 10 CHO cell lines, each ectopically over-expressing the extracellular cysteine-rich domain (CRD) of a different Frizzled protein family member.

FZD5 CRD = target: T1, FZD5 CRD
Description: as §1, §2, §3

FZD8 CRD = target: T2, FZD8 CRD
Description: as §1, §2, §3

FZD9 CRD = target: T3, FZD9 CRD
Description: as §1, §2, §3

FZD7 CRD = target: T7, FZD7 CRD (Homo sapiens, UniProt O75084)
T7 construct: D45-S169; GPI anchor signal (C); expressed in transfected cells; host or cells: CHO cells, lentiviral pLenti-puro
Description: as §1, §2, §3

FZD3 CRD = target: T4, FZD3 CRD
Description: as §1, §2, §3

FZD6 CRD = target: T5, FZD6 CRD
Description: as §1, §2, §3

Molecule	Immunofluorescence binding, Frizzled CRD overexpressed on CHO cells: FZD1 (FZD1 CRD)	Immunofluorescence binding, Frizzled CRD overexpressed on CHO cells: FZD5 (FZD5 CRD)	Immunofluorescence binding, Frizzled CRD overexpressed on CHO cells: FZD8 (FZD8 CRD)	Immunofluorescence binding, Frizzled CRD overexpressed on CHO cells: FZD9 (FZD9 CRD)	Immunofluorescence binding, Frizzled CRD overexpressed on CHO cells: FZD7 (FZD7 CRD)	Immunofluorescence binding, Frizzled CRD overexpressed on CHO cells: FZD3 (FZD3 CRD)	Immunofluorescence binding, Frizzled CRD overexpressed on CHO cells: FZD6 (FZD6 CRD)
Fab-2912: anti-FZD5 Fab with antibody variable region Fv-2912; CDR SEQ ID NOs: 35, 36, 51, 90, 127, 164 (antibody, V domains shown) VH: EVQLVESGGGLVQPGGSLRLSCAASGFNISYSYIHWVRQAPGKGLEWVASISSSSGYTSYADSVKGRFTISADTSKNTAYLQMNSLRAEDTAVYYCARTVRGSKKPYFSGWAMDYWGQGTLVTVSS VL: DIQMTQSPSSLSASVGDRVTITCRASQSVSSAVAWYQQKPGKAPKLLIYSASSLYSGVPSRFSGSRSGTDFTLTISSLQPEDFATYYCQQFYFPYLITFGQGTKVEIK	+	+++	+	−	++++	−	−
Fab-2914: anti-FZD5 Fab with antibody variable region Fv-2914; CDR SEQ ID NOs: 35, 36, 53, 92, 129, 162 (antibody, V domains shown) VH: EVQLVESGGGLVQPGGSLRLSCAASGFNIYYSYMHWVRQAPGKGLEWVASIYPSSSSTSYADSVKGRFTISADTSKNTAYLQMNSLRAEDTAVYYCARGAMDYWGQGTLVTVSS VL: DIQMTQSPSSLSASVGDRVTITCRASQSVSSAVAWYQQKPGKAPKLLIYSASSLYSGVPSRFSGSRSGTDFTLTISSLQPEDFATYYCQQWYYGSLITFGQGTKVEIK	++	++++	++	−	++++	−	−
Fab-2913: anti-FZD5 Fab with antibody variable region Fv-2913; CDR SEQ ID NOs: 35, 36, 52, 91, 128, 165 (antibody, V domains shown) VH: EVQLVESGGGLVQPGGSLRLSCAASGFNISYSSIHWVRQAPGKGLEWVASIYPYSSSTSYADSVKGRFTISADTSKNTAYLQMNSLRAEDTAVYYCARYGYYGLDYWGQGTLVTVSS VL: DIQMTQSPSSLSASVGDRVTITCRASQSVSSAVAWYQQKPGKAPKLLIYSASSLYSGVPSRFSGSRSGTDFTLTISSLQPEDFATYYCQQWGVSHYLFTFGQGTKVEIK	++	++	−	−	++++	−	−

Next, values leading:

Immunofluorescence binding, Frizzled CRD overexpressed on CHO cells: FZD1 (FZD1 CRD)	Immunofluorescence binding, Frizzled CRD overexpressed on CHO cells: FZD5 (FZD5 CRD)	Immunofluorescence binding, Frizzled CRD overexpressed on CHO cells: FZD8 (FZD8 CRD)	Immunofluorescence binding, Frizzled CRD overexpressed on CHO cells: FZD9 (FZD9 CRD)	Immunofluorescence binding, Frizzled CRD overexpressed on CHO cells: FZD7 (FZD7 CRD)	Immunofluorescence binding, Frizzled CRD overexpressed on CHO cells: FZD3 (FZD3 CRD)	Immunofluorescence binding, Frizzled CRD overexpressed on CHO cells: FZD6 (FZD6 CRD)	Molecule
++	+++	+	−	++++	−	−	Fab-2915: anti-FZD5 Fab with antibody variable region Fv-2915; CDR SEQ ID NOs: 35, 36, 54, 93, 130, 166 (antibody, V domains shown) VH: EVQLVESGGGLVQPGGSLRLSCAASGFNIYYYSMHWVRQAPGKGLEWVASIYSSYGYTSYADSVKGRFTISADTSKNTAYLQMNSLRAEDTAVYYCARGYHYYPYYSGLDYWGQGTLVTVSS VL: DIQMTQSPSSLSASVGDRVTITCRASQSVSSAVAWYQQKPGKAPKLLIYSASSLYSGVPSRFSGSRSGTDFTLTISSLQPEDFATYYCQQAYYHSLITFGQGTKVEIK
++++	++++	+	−	++++	−	−	Fab-2916: anti-FZD5 Fab with antibody variable region Fv-2916; CDR SEQ ID NOs: 35, 36, 55, 94, 131, 167 (antibody, V domains shown) VH: EVQLVESGGGLVQPGGSLRLSCAASGFNISYSSIHWVRQAPGKGLEWVASIYPSYSYTYYADSVKGRFTISADTSKNTAYLQMNSLRAEDTAVYYCARYGYYGMDYWGQGTLVTVSS VL: DIQMTQSPSSLSASVGDRVTITCRASQSVSSAVAWYQQKPGKAPKLLIYSASSLYSGVPSRFSGSRSGTDFTLTISSLQPEDFATYYCQQWYHYPYLITFGQGTKVEIK

From US20210253718A1, “FRIZZLED5 PROTEIN-BINDING AGENTS” (Modmab Therapeutics Corporation, priority 2016, published 2021)
